Measurements published in article PMC12448071.
pKd: −log10 of the molar value.

Target: F-actin (actin from rabbit skeletal muscle, polymerised) (rabbit) (UniProt P68135)
Test: co-sedimentation; high-speed cosedimentation titration: constant 500 nM FL-HTT with increasing F-actin, 30 min RT; apparent constant (Kdapp); fit accounts for ligand depletion and incomplete saturation

recombinant human full-length wild-type HTT (21 glutamines), P42858 1-3142
pKd: 6.63
